The target of test [1] is T1, EBV BRLF1 peptide on HLA-A*02:01 (human).
T1 peptide: YVLDHLIVV
As to the kind of experiment: multimer staining.

In test [2] the target is T2, tyrosinase peptide on HLA-A*02:01 (human).
T2 peptide: YMDGTMSQV
Briefly: activation reporter or marker.

B1: WT TCR AV8.1-CAVKDTDKLIF-AJ34 BV24.1-CATSDWDDSTGELFF-BJ2.2 (TCR)
alpha AV8.1 AJ34 CDR3: CAVKDTDKLIF
beta BV24.1 BJ2.2 CDR3: CATSDWDDSTGELFF
For B1, the binding result is “recognises” in test [1] and “no recognition” in test [2].

The record behind these values is PMC6901265 (2019).
